Assay results: the RNAGym collection of RNA variant scans (doi:10.1093/molbev/msab373)

B1: Azoarcus group I ribozyme (parent)
chain: GUGCCUUGCGCCGGGAAACCACGCAAGGGAUGGUGUCAAAUUCGGCGAAACCUAAGCGCCCGCCCGGGCGUAUGGCAACGCCGAGCCAAGCUUCGGCGCCUGCGCCGAUGAAGGUGUAGAGACUAGACGGCACCCACCUAAGGCAAACGCUAUGGUGAAGGCAUAGUCCAGGGAGUGGCGAAAGUCACACAAACCGG

Variants of: B1
Assay: reverse-splicing fitness (ratio to wild type); higher = more active; in vitro selection; Mg2+ level not given
Outline: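 An in vitro group I ribozyme library with randomized positions was T7-transcribed and gel-purified. In triplicate, 10 pmol RNA in EPPS pH 7.5 was reacted with 50 pmoles of a 30-nt RNA substrate for 1 h at 37 °C across several added MgCl2 levels (1–48 mM), then stopped with EDTA. Products were reverse transcribed from a substrate-complementary primer, PCR-amplified and sequenced (HiSeq 4000). Fitness is a variant's read proportion after selection over that before, normalised to wild type.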

Point of comparison: GUGCCUUGCGCCGGGAAACCACGCAAGGGAUGGUGUCAAAUUCGGCGAAACCUAAGCGCCCGCCCGGGCGUAUGGCAACGCGGAGCCAAGCUUCGGCGCCUGCGCCGAUGGAGGUGUAGGGACUAGACGGCACCCACCUAAGGCGAACGAUAUGGUGAAGGCAUAGUCUAGGGAGUGGCGAAAGUCACACAAACCGG [C82G A111G A120G A145G C150A C169U], reverse-splicing fitness 0.0102. Against it:
- GUGCCUUGCGCCGGGAAACCACGCAAGGGAUGGUGUCAAAUUCGGCGAAACCUAAGCGCCCGCCCGGGCGUAUGGCAACGCGGAGCCAAGCUUCGGCGCCUGCGCCGAUGGAGGUGUAGGGACUAGACGGCACCCACCUAAGGCGAACGAUAUGGUGAAGGCAUAGUCAAGGGAGAGGCGAAAGUCACACAAACCGG [C82G A111G A120G A145G C150A C169A U176A] — higher, 0.0204
- GUGCCUUGCGCCGGGAAACCACGCAAGGGAUGGUGUCAAAUUCGGCGAAACCUAAGCGCCCGCCCGGGCGUAUGGCAACGCGGAGCCAAGCUUCGGCGCCUGCGCCGAUGGAGGUGUAGGGACUAGACGGCACCCACCUAAGGCGAACGAUAUGGUGAAGGCAUAGUCAAGGGAGGGGCGAAAGUCACACAAACCGG [C82G A111G A120G A145G C150A C169A U176G] — lower, 0.00774
- GUGCCUUGCGCCGGGAAACCACGCAAGGGAUGGUGUCAAAUUCGGCGAAACCUAAGCGCCCGCCCGGGCGUAUGGCAACGCGGAGCCAAGCUUCGGCGCCUGCGCCGAUGGAGGUGUAGGGACUAGACGGCACCCACCUAAGGCCAACGCUAUGGUGAAGGCAUAGUCGAGGGAGCGGCGAAAGUCACACAAACCGG [C82G A111G A120G A145C C169G U176C] — higher, 0.0207
- GUGCCUUGCGCCGGGAAACCACGCAAGGGAUGGUGUCAAAUUCGGCGAAACCUAAGCGCCCGCCCGGGCGUAUGGCAACGCGGAGCCAAGCUUCGGCGCCUGCGCCGAUGGAGGUGUAGGGACUAGACGGCACCCACCUAAGGCCAACGCUAUGGUGAAGGCAUAGUCGAGGGAGAGGCGAAAGUCACACAAACCGG [C82G A111G A120G A145C C169G U176A] — higher, 0.0262
- GUGCCUUGCGCCGGGAAACCACGCAAGGGAUGGUGUCAAAUUCGGCGAAACCUAAGCGCCCGCCCGGGCGUAUGGCAACGCGGAGCCAAGCUUCGGCGCCUGCGCCGAUGGAGGUGUAGGGACUAGACGGCACCCACCUAAGGCCAACGCUAUGGUGAAGGCAUAGUCGAGGGAGGGGCGAAAGUCACACAAACCGG [C82G A111G A120G A145C C169G U176G] — lower, 0.00483
- GUGCCUUGCGCCGGGAAACCACGCAAGGGAUGGUGUCAAAUUCGGCGAAACCUAAGCGCCCGCCCGGGCGUAUGGCAACGCGGAGCCAAGCUUCGGCGCCUGCGCCGAUGGAGGUGUAGGGACUAGACGGCACCCACCUAAGGCGAACGAUAUGGUGAAGGCAUAGUCAAGGGAGUGGCGAAAGUCACACAAACCGG [C82G A111G A120G A145G C150A C169A] — higher, 0.0113
- GUGCCUUGCGCCGGGAAACCACGCAAGGGAUGGUGUCAAAUUCGGCGAAACCUAAGCGCCCGCCCGGGCGUAUGGCAACGCGGAGCCAAGCUUCGGCGCCUGCGCCGAUGGAGGUGUAGGGACUAGACGGCACCCACCUAAGGCGAACGAUAUGGUGAAGGCAUAGUCGAGGGAGUGGCGAAAGUCACACAAACCGG [C82G A111G A120G A145G C150A C169G] — the same, 0.0102
- GUGCCUUGCGCCGGGAAACCACGCAAGGGAUGGUGUCAAAUUCGGCGAAACCUAAGCGCCCGCCCGGGCGUAUGGCAACGCGGAGCCAAGCUUCGGCGCCUGCGCCGAUGGAGGUGUAGGGACUAGACGGCACCCACCUAAGGCCAACGCUAUGGUGAAGGCAUAGUCCAGGGAGGGGCGAAAGUCACACAAACCGG [C82G A111G A120G A145C U176G] — lower, 0.0063
- GUGCCUUGCGCCGGGAAACCACGCAAGGGAUGGUGUCAAAUUCGGCGAAACCUAAGCGCCCGCCCGGGCGUAUGGCAACGCGGAGCCAAGCUUCGGCGCCUGCGCCGAUGGAGGUGUAGGGACUAGACGGCACCCACCUAAGGCCAACGCUAUGGUGAAGGCAUAGUCCAGGGAGAGGCGAAAGUCACACAAACCGG [C82G A111G A120G A145C U176A] — higher, 0.0154
- GUGCCUUGCGCCGGGAAACCACGCAAGGGAUGGUGUCAAAUUCGGCGAAACCUAAGCGCCCGCCCGGGCGUAUGGCAACGCGGAGCCAAGCUUCGGCGCCUGCGCCGAUGGAGGUGUAGGGACUAGACGGCACCCACCUAAGGCCAACGCUAUGGUGAAGGCAUAGUCCAGGGAGCGGCGAAAGUCACACAAACCGG [C82G A111G A120G A145C U176C] — higher, 0.0181
- GUGCCUUGCGCCGGGAAACCACGCAAGGGAUGGUGUCAAAUUCGGCGAAACCUAAGCGCCCGCCCGGGCGUAUGGCAACGCGGAGCCAAGCUUCGGCGCCUGCGCCGAUGGAGGUGUAGGGACUAGACGGCACCCACCUAAGGCGAACGCUAUGGUGAAGGCAUAGUCCAGGGAGUGGCGAAAGUCACACAAACCGG [C82G A111G A120G A145G] — higher, 0.0179
- GUGCCUUGCGCCGGGAAACCACGCAAGGGAUGGUGUCAAAUUCGGCGAAACCUAAGCGCCCGCCCGGGCGUAUGGCAACGCGGAGCCAAGCUUCGGCGCCUGCGCCGAUGGAGGUGUAGGGACUAGACGGCACCCACCUAAGGCCAACGCUAUGGUGAAGGCAUAGUCAAGGGAGAGGCGAAAGUCACACAAACCGG [C82G A111G A120G A145C C169A U176A] — higher, 0.0165
- GUGCCUUGCGCCGGGAAACCACGCAAGGGAUGGUGUCAAAUUCGGCGAAACCUAAGCGCCCGCCCGGGCGUAUGGCAACGCGGAGCCAAGCUUCGGCGCCUGCGCCGAUGGAGGUGUAGGGACUAGACGGCACCCACCUAAGGCCAACGCUAUGGUGAAGGCAUAGUCAAGGGAGCGGCGAAAGUCACACAAACCGG [C82G A111G A120G A145C C169A U176C] — higher, 0.0114
- GUGCCUUGCGCCGGGAAACCACGCAAGGGAUGGUGUCAAAUUCGGCGAAACCUAAGCGCCCGCCCGGGCGUAUGGCAACGCGGAGCCAAGCUUCGGCGCCUGCGCCGAUGGAGGUGUAGGGACUAGACGGCACCCACCUAAGGCCAACGCUAUGGUGAAGGCAUAGUCAAGGGAGGGGCGAAAGUCACACAAACCGG [C82G A111G A120G A145C C169A U176G] — lower, 0.00415
